Data published in PMC11044963, “Probing the CRL4^DCAF12 interactions with MAGEA3 and CCT5 di-Glu C-terminal degrons” (PNAS Nexus, 2024).

Experiments:
[1] = biological target: FITC-labeled CCT5 C-terminal degron peptide (human); test: fluorescence polarisation; direct binding; protein titrated from 4 µM in two-fold steps against 20 nM FITC peptide; 20 mM Tris pH 7.5, 150 mM NaCl, 5% glycerol, 0.5 mM TCEP, 0.01% Triton; 45 min at room temperature
[2] = biological target: FITC-labeled MAGEA3 C-terminal degron peptide; test: as above

- Kd [1]: 130 nM
- Kd [2]: 60 nM
Substance: DDB1–DCAF12–DDA1 complex (from UniProt Q5T6F0 1-453; Q5T6F0 1-453; Q9BW61 1-102)
